Measured values: article PMC3175422

Biological target: calreticulin (CRT) (UniProt P27797)
Experiment: SPR

Sequence of UniProt P27797 (P27797 18-417): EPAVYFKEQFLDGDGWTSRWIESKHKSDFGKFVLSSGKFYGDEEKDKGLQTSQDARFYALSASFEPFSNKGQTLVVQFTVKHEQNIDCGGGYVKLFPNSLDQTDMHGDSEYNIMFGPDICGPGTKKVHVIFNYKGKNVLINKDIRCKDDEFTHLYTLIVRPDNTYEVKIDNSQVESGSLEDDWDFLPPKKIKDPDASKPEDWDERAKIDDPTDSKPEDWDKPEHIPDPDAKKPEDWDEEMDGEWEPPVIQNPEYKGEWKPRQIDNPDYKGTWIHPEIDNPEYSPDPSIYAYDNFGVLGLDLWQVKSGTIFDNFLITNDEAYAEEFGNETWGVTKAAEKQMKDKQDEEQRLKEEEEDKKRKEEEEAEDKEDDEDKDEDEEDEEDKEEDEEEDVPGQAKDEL

| Kd | koff | kon | Substance |
| --- | --- | --- | --- |
| 110 nM | 0.00199 s⁻¹ | 18100 M⁻¹ s⁻¹ | Gal1Glc1Man9GlcNAc2-RNase (2) (from UniProt P61823 27-150) (enzyme) |
| 38 nM | 0.000482 s⁻¹ | 12800 M⁻¹ s⁻¹ | Glc1Man9GlcNAc2-RNase (1) (from UniProt P61823 27-150) (enzyme) |
